According to patent publication US20220308072A1:

Tests used:
[1] = target: Recombinant, his tagged full length human frataxin protein (Abcam ab95502) (human) (UniProt Q16595); experiment: Simoa sandwich 3-step; capture Ab-5
[2] = target: Recombinant, his tagged full length human frataxin protein (Abcam ab95502) (human) (UniProt Q16595); experiment: Simoa sandwich 3-step; capture Ab-4
[3] = target: Recombinant, his tagged full length human frataxin protein (Abcam ab95502) (human) (UniProt Q16595); experiment: Simoa sandwich 3-step; capture Ab-2
[4] = target: Recombinant, his tagged full length human frataxin protein (Abcam ab95502) (human) (UniProt Q16595); experiment: Simoa sandwich 2-step (120 min-5 min); capture Ab-1
[5] = target: Recombinant, his tagged full length human frataxin protein (Abcam ab95502) (human) (UniProt Q16595); experiment: Simoa sandwich 3-step; capture Ab-5; frataxin 100 pg/mL
[6] = target: Recombinant, his tagged full length human frataxin protein (Abcam ab95502) (human) (UniProt Q16595); experiment: Simoa sandwich 3-step; capture Ab-1; frataxin 100 pg/mL
[7] = target: Recombinant, his tagged full length human frataxin protein (Abcam ab95502) (human) (UniProt Q16595); experiment: Simoa sandwich 2-step; capture Ab-2; frataxin 100 pg/mL
[8] = target: Recombinant, his tagged full length human frataxin protein (Abcam ab95502) (human) (UniProt Q16595); experiment: Simoa sandwich 2-step; capture Ab-2; frataxin 167 pg/mL
[9] = target: Recombinant, his tagged full length human frataxin protein (Abcam ab95502) (human) (UniProt Q16595); experiment: Simoa sandwich 2-step; capture Ab-4; frataxin 1000 pg/mL
[10] = target: Recombinant, his tagged full length human frataxin protein (Abcam ab95502) (human) (UniProt Q16595); experiment: Simoa sandwich 3-step; capture Ab-3; frataxin 10000 pg/mL
[11] = target: Recombinant, his tagged full length human frataxin protein (Abcam ab95502) (human) (UniProt Q16595); experiment: Simoa sandwich 2-step; capture Ab-2; frataxin 0.686 pg/mL
[12] = target: Recombinant, his tagged full length human frataxin protein (Abcam ab95502) (human) (UniProt Q16595); experiment: Simoa sandwich 2-step; capture Ab-1; 150 pM SβG; frataxin 500 pg/mL
[13] = target: Recombinant, his tagged full length human frataxin protein (Abcam ab95502) (human) (UniProt Q16595); experiment: Simoa sandwich 2-step; capture Ab-1; 150 pM SβG; frataxin 6.17 pg/mL
[14] = target: Recombinant, his tagged full length human frataxin protein (Abcam ab95502) (human) (UniProt Q16595); experiment: Simoa sandwich 2-step (120 min-5 min); capture Ab-1; frataxin 222 pg/mL
[15] = target: Recombinant, his tagged full length human frataxin protein (Abcam ab95502) (human) (UniProt Q16595); experiment: Simoa sandwich 2-step (120 min-5 min); capture Ab-1; frataxin 667 pg/mL
[16] = target: Recombinant, his tagged full length human frataxin protein (Abcam ab95502) (human) (UniProt Q16595); experiment: Simoa sandwich 2-step (35 min-5 min); capture Ab-1; with helper beads; frataxin 18.5 pg/mL
[17] = target: Recombinant, his tagged full length human frataxin protein (Abcam ab95502) (human) (UniProt Q16595); experiment: Simoa sandwich 2-step (35 min-5 min); capture Ab-1; with helper beads; frataxin 2.06 pg/mL
[18] = target: Recombinant, his tagged full length human frataxin protein (Abcam ab95502) (human) (UniProt Q16595); experiment: Simoa sandwich 2-step (120 min-5 min); capture Ab-1; Diluent 1 + 5% NCS; frataxin 7.41 pg/mL
[19] = target: Recombinant, his tagged full length human frataxin protein (Abcam ab95502) (human) (UniProt Q16595); experiment: Simoa sandwich 2-step (120 min-5 min); capture Ab-1; Diluent 1 + 10% NCS; frataxin 200 pg/mL
[20] = target: Recombinant, his tagged full length human frataxin protein (Abcam ab95502) (human) (UniProt Q16595); experiment: Simoa sandwich 2-step (120 min-5 min); capture Ab-1; Diluent 1 + 10% NCS; frataxin 111 pg/mL
[21] = target: Recombinant, his tagged full length human frataxin protein (Abcam ab95502) (human) (UniProt Q16595); experiment: Simoa sandwich 2-step (120 min-5 min); capture Ab-1; Diluent 1 + 5% NCS; frataxin 37.0 pg/mL
[22] = target: Recombinant, his tagged full length human frataxin protein (Abcam ab95502) (human) (UniProt Q16595); experiment: Simoa sandwich 2-step (120 min-5 min); capture Ab-1; Diluent 1 + 5% NCS; frataxin 0.823 pg/mL
[23] = target: Recombinant, his tagged full length human frataxin protein (Abcam ab95502) (human) (UniProt Q16595); experiment: Simoa sandwich 2-step (120 min-5 min); capture Ab-1; Diluent 1 + 10% NCS; frataxin 66.7 pg/mL
[24] = target: Recombinant, his tagged full length human frataxin protein (Abcam ab95502) (human) (UniProt Q16595); experiment: Simoa sandwich 2-step (120 min-5 min); capture Ab-1; Diluent 1 + 10% NCS; frataxin 4.12 pg/mL
[25] = target: Recombinant, his tagged full length human frataxin protein (Abcam ab95502) (human) (UniProt Q16595); experiment: Simoa sandwich 2-step (120 min-5 min); capture Ab-1; Diluent 1 + 10% NCS; frataxin 0.274 pg/mL

Chain of UniProt Q16595 (Q16595 42-210): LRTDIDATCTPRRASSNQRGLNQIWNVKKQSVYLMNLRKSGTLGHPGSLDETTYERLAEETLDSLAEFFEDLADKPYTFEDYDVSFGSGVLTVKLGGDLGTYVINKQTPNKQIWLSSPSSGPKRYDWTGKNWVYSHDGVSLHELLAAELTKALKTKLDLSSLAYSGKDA

## Ab-3, mouse monoclonal [18A5DB1] to Frataxin (Abcam ab110328) (antibody)
[1]
  LOD: 1.73 pg/mL
[2]
  LOD: 1.09 pg/mL
[3]
  LOD: 0.65 pg/mL
[4]
  LOD: 0.465 pg/mL
[5]
  Ave AEB: 2.9 AEB
  S/B: 15.2
[6]
  Ave AEB: 2.47 AEB
  S/B: 50
[7]
  Ave AEB: 7.14 AEB
  S/B: 88.6
[8]
  Ave AEB: 14.1 AEB
  S/B: 148
[9]
  Ave AEB: 23.7 AEB
  S/B: 193
[10]
  Ave AEB: 1.06 AEB
  S/B: 224
[11]
  Ave AEB: 0.165 AEB
  S/B: 1.73
[12]
  Ave AEB: 23.7 AEB
  S/B: 527
[13]
  Ave AEB: 0.521 AEB
  S/B: 11.6
[14]
  AEB rep1: 1.01 AEB
  AEB rep2: 1.08 AEB
  AEB rep3: 1.04 AEB
  Ave AEB: 1.04 AEB
  S/B: 127
[15]
  AEB rep1: 3.57 AEB
  AEB rep2: 3.99 AEB
  AEB rep3: 3.61 AEB
  Ave AEB: 3.73 AEB
  S/B: 451
[16]
  AEB Rep1: 1.14 AEB
  AEB Rep2: 1.19 AEB
  Ave AEB: 1.16 AEB
  S/B: 47.8
[17]
  AEB Rep1: 0.146 AEB
  AEB Rep2: 0.143 AEB
  Ave AEB: 0.144 AEB
  S/B: 5.93
[18]
  Ave AEB: 0.156 AEB
  S/B: 8.62
[19]
  Ave AEB: 2.03 AEB
  S/B: 112
[20]
  Ave AEB: 0.515 AEB
  S/B: 48
[21]
  Ave AEB: 0.341 AEB
  S/B: 31.1
[22]
  Ave AEB: 0.0324 AEB
  S/B: 1.79
[23]
  Ave AEB: 0.602 AEB
  S/B: 33.1
[24]
  Ave AEB: 0.0283 AEB
  S/B: 2.63
[25]
  Ave AEB: 0.023 AEB
  S/B: 1.27
